Measured values taken from PMC9482650, “Quantitative fragmentomics allow affinity mapping of interactomes” (Nature Communications, 2022).
Positions count from the first letter of the chain named.

T1: MPP6, Q9NZW5
T1 sequence (Q9NZW5 125-219, limits assumed, looked up): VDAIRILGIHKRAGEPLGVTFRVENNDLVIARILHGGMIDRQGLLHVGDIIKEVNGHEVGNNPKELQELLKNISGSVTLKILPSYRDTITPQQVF

T2: MPDZ_10, O75970
T2 sequence (O75970 1624-1722, limits assumed, looked up): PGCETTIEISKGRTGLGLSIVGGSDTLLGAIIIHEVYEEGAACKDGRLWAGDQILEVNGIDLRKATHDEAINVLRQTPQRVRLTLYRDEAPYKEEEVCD

T3: SNTG2, Q9NY99
T3 sequence (Q9NY99 68-166, limits assumed, looked up): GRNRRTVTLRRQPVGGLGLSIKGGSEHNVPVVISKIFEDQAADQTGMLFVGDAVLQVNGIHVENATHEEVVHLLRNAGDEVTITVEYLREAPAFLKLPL

T4: HTRA4, P83105
T4 sequence (P83105 378-476, limits assumed, looked up): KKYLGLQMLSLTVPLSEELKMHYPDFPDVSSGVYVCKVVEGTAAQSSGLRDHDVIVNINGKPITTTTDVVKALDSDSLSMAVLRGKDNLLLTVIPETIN

T5: MPP7, Q5T2T1
T5 sequence (Q5T2T1 134-230, limits assumed, looked up): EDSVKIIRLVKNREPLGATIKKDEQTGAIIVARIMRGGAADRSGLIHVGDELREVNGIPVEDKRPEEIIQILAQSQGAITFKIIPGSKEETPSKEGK

T6: MPP2, Q14168
T6 sequence (Q14168 180-250, limits assumed, looked up): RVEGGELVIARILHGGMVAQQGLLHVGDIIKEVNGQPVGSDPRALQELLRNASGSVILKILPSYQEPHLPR

T7: PCLO, Q9Y6V0
T7 sequence (Q9Y6V0 4491-4600, limits assumed, looked up): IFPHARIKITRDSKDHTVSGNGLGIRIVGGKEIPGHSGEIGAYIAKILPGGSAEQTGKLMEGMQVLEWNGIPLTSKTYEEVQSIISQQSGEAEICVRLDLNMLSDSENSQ

T8: GRIP1_7, Q9Y3R0
T8 sequence (Q9Y3R0 999-1096, limits assumed, looked up): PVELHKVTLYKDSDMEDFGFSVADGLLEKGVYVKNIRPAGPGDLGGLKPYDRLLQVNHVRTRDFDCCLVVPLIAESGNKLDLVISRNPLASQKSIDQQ

T9: APBA2_2, Q99767
T9 sequence (Q99767 654-744, limits assumed, looked up): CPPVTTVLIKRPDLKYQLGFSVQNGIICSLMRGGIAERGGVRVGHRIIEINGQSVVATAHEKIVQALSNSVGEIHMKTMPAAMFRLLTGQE

T10: ARHGAP21, Q5T5U3
T10 sequence (Q5T5U3 45-169, limits assumed, looked up): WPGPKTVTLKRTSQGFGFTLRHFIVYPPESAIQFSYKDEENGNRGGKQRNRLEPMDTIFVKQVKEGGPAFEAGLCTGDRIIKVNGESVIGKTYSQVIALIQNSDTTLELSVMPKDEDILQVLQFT

T11: MPDZ_5, O75970
T11 sequence (O75970 695-796, limits assumed, looked up): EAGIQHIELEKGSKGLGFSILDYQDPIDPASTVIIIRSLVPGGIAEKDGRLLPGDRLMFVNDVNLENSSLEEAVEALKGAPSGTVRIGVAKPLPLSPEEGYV

T12: APBA1_2, Q02410
T12 sequence (Q02410 742-832, limits assumed, looked up): T9 sequence (Q99767 654-744, limits assumed, looked up) with K10R, K15R, A59P, Q65H, A66I, S70A, F84Y, G89A

B1: ADGRG1, Q9Y653 (peptide)
chain: SSGSTSSSRI
B2: GAGE12J, A6NER3 (peptide)
chain: PEEGKKQSQC
B3: KCNT1, Q5JUK3 (peptide)
chain: NPETRDETQL
B4: SEMA4C, Q9C0C4 (peptide)
chain: PDSNPEESSV

Assays:
Assay in all cases: holdup assay
Design in all cases: key: below the threshold = too weak to quantify, mostly under pKd 3.1 to 4
Conditions in all cases: plain residues with an end cap or a label only (N-terminal biotin on a linker: ado-ado)
MPP6, Q9NZW5 = molecular target: T1, MPP6, Q9NZW5
MAGI2_3, Q86UL8 = molecular target: MAGI2_3, Q86UL8
MPDZ_10, O75970 = molecular target: T2, MPDZ_10, O75970
SCRIB_2, Q14160 = molecular target: SCRIB_2, Q14160
SNTG2, Q9NY99 = molecular target: T3, SNTG2, Q9NY99
LAP2, Q96RT1 = molecular target: LAP2, Q96RT1
GRIP2_4, Q9C0E4 = molecular target: GRIP2_4, Q9C0E4
NHERF4_2, Q86UT5 = molecular target: NHERF4_2, Q86UT5
DLG1_3, Q12959 = molecular target: DLG1_3, Q12959
HTRA4, P83105 = molecular target: T4, HTRA4, P83105
MPP7, Q5T2T1 = molecular target: T5, MPP7, Q5T2T1
MPP2, Q14168 = molecular target: T6, MPP2, Q14168
LNX1_1, Q8TBB1 = molecular target: LNX1_1, Q8TBB1
PCLO, Q9Y6V0 = molecular target: T7, PCLO, Q9Y6V0
GRIP1_7, Q9Y3R0 = molecular target: T8, GRIP1_7, Q9Y3R0
IL16_1, Q14005 = molecular target: IL16_1, Q14005
APBA2_2, Q99767 = molecular target: T9, APBA2_2, Q99767
MAGI3_2, Q5TCQ9 = molecular target: MAGI3_2, Q5TCQ9
ARHGAP21, Q5T5U3 = molecular target: T10, ARHGAP21, Q5T5U3
NHERF2_2, Q15599 = molecular target: NHERF2_2, Q15599
DLG1_1, Q12959 = molecular target: DLG1_1, Q12959
GRIP2_5, Q9C0E4 = molecular target: GRIP2_5, Q9C0E4
GRIP2_3, Q9C0E4 = molecular target: GRIP2_3, Q9C0E4
MPDZ_5, O75970 = molecular target: T11, MPDZ_5, O75970
MAGI2_6, Q86UL8 = molecular target: MAGI2_6, Q86UL8
APBA1_2, Q02410 = molecular target: T12, APBA1_2, Q02410

MAGI2_3, Q86UL8, sequence (Q86UL8 600-682): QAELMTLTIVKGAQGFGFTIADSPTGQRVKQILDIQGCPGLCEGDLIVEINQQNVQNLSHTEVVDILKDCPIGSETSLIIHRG
MAGI3_2, Q5TCQ9, sequence (Q5TCQ9 398-503): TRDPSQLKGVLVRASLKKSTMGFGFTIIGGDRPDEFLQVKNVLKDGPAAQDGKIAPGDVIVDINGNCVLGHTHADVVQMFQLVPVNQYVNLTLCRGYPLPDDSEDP
NHERF4_2, Q86UT5, sequence (Q86UT5 220-308): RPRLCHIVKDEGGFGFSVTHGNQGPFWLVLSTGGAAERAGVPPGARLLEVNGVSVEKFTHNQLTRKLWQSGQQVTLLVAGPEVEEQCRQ
GRIP2_5, Q9C0E4, sequence (Q9C0E4 544-642): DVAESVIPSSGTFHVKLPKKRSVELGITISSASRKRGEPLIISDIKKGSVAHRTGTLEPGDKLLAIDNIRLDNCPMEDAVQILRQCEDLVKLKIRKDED
NHERF2_2, Q15599, sequence (Q15599 142-238): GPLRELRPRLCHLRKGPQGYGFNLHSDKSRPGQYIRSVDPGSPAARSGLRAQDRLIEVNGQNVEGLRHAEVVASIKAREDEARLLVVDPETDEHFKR
GRIP2_3, Q9C0E4, sequence (Q9C0E4 238-339): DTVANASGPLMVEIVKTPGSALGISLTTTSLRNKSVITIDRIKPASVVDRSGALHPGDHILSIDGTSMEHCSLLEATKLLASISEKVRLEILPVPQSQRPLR
MAGI2_6, Q86UL8, sequence (Q86UL8 1141-1229): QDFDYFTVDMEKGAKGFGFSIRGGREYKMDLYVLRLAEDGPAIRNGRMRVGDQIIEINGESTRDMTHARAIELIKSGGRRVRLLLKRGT
GRIP2_4, Q9C0E4, sequence (Q9C0E4 446-548): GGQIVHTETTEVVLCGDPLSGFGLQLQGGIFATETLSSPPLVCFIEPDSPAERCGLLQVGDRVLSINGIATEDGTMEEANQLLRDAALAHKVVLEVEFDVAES
LAP2, Q96RT1, sequence (Q96RT1 other isoform, or with tags, fused parts or gaps): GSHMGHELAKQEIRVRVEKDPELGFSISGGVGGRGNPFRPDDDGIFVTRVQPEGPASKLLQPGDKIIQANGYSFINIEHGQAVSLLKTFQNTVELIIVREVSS
LNX1_1, Q8TBB1, sequence (Q8TBB1 261-371): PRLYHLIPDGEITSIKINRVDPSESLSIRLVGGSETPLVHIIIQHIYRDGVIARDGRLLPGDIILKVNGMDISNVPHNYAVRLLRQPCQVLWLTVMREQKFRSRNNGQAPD
IL16_1, Q14005, sequence (Q14005 210-306): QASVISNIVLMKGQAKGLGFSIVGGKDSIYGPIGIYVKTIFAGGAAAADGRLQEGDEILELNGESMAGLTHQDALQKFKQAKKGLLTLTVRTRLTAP
SCRIB_2, Q14160, sequence (Q14160 857-960): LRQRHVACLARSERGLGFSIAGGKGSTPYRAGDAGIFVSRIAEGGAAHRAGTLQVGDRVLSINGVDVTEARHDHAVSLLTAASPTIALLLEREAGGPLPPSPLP

Row | Binder | pKd (MPP6, Q9NZW5) | pKd (MAGI2_3, Q86UL8) | pKd (MPDZ_10, O75970) | pKd (SCRIB_2, Q14160) | pKd (SNTG2, Q9NY99) | pKd (LAP2, Q96RT1) | pKd (GRIP2_4, Q9C0E4) | pKd (NHERF4_2, Q86UT5) | pKd (DLG1_3, Q12959) | pKd (HTRA4, P83105) | pKd (MPP7, Q5T2T1) | pKd (MPP2, Q14168) | pKd (LNX1_1, Q8TBB1) | pKd (PCLO, Q9Y6V0) | pKd (GRIP1_7, Q9Y3R0) | pKd (IL16_1, Q14005) | pKd (APBA2_2, Q99767) | pKd (MAGI3_2, Q5TCQ9) | pKd (ARHGAP21, Q5T5U3) | pKd (NHERF2_2, Q15599) | also measured
1 | B1 | below the threshold | below the threshold | below the threshold | below the threshold | 3.68 | below the threshold | below the threshold | below the threshold | 3.87 | below the threshold | below the threshold | below the threshold | 3.66 | below the threshold | below the threshold | below the threshold | below the threshold | 3.63 | below the threshold | 3.71 | pKd (DLG1_1, Q12959): below the threshold; pKd (GRIP2_5, Q9C0E4): below the threshold; pKd (GRIP2_3, Q9C0E4): below the threshold; pKd (MPDZ_5, O75970): below the threshold; pKd (MAGI2_6, Q86UL8): below the threshold; pKd (APBA1_2, Q02410): below the threshold
2 | B2 | below the threshold | 3.58 | below the threshold | below the threshold | 3.51 | below the threshold | below the threshold | below the threshold | below the threshold | below the threshold | below the threshold | below the threshold | below the threshold | below the threshold | below the threshold | below the threshold | below the threshold | below the threshold | below the threshold | 3.48 | pKd (DLG1_1, Q12959): below the threshold; pKd (GRIP2_5, Q9C0E4): below the threshold; pKd (GRIP2_3, Q9C0E4): below the threshold; pKd (MPDZ_5, O75970): below the threshold; pKd (MAGI2_6, Q86UL8): below the threshold; pKd (APBA1_2, Q02410): below the threshold
3 | B3 | 3.74 | 3.52 | below the threshold | 4.05 | 4.08 | below the threshold | below the threshold | below the threshold | below the threshold | below the threshold | below the threshold | below the threshold | below the threshold | below the threshold | below the threshold | below the threshold | below the threshold | below the threshold | 4.02 | 4.83 | pKd (DLG1_1, Q12959): below the threshold; pKd (GRIP2_5, Q9C0E4): below the threshold; pKd (GRIP2_3, Q9C0E4): below the threshold; pKd (MPDZ_5, O75970): below the threshold; pKd (MAGI2_6, Q86UL8): 3.51; pKd (APBA1_2, Q02410): below the threshold
4 | B4 | below the threshold | below the threshold | below the threshold | 4.43 | 4.04 | 4.46 | below the threshold | below the threshold | 3.65 | below the threshold | below the threshold | below the threshold | below the threshold | below the threshold | below the threshold | 4.49 | below the threshold | 3.77 | 4.09 | 3.88 | pKd (DLG1_1, Q12959): 3.74; pKd (GRIP2_5, Q9C0E4): below the threshold; pKd (GRIP2_3, Q9C0E4): below the threshold; pKd (MPDZ_5, O75970): below the threshold; pKd (MAGI2_6, Q86UL8): 4.27; pKd (APBA1_2, Q02410): 3.8
